T1: human CD3ed-Fc (human)
T1 construct: human CD3 epsilon and human CD3 delta linked to a human antibody constant region, biotinylated in culture with BirA; also called CD3 epsilon delta heterodimer fused with the antibody constant region; biotin-labeled human CD3ed-Fc
T1 chain 1: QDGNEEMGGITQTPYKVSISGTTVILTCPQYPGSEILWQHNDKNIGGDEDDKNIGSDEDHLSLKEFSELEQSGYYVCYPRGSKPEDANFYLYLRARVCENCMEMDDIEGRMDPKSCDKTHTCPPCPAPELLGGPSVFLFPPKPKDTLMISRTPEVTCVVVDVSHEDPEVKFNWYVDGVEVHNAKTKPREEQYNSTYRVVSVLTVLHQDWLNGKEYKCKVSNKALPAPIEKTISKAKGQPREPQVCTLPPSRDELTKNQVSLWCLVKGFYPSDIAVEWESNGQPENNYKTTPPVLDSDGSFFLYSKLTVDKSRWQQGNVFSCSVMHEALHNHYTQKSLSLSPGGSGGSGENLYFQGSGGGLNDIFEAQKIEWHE
T1 chain 2: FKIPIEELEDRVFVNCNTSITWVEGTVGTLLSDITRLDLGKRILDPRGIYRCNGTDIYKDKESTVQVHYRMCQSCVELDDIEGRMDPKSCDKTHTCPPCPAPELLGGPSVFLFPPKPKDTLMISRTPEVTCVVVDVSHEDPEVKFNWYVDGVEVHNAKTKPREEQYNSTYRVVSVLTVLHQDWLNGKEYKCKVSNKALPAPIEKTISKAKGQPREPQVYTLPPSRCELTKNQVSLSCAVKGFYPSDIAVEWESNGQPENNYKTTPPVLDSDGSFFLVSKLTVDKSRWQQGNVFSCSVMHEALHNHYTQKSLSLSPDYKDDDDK


What was measured:
[1] = target: T2, Human aggrecan G1-IGD-G2 domain with Flag-tag on its C-terminus (human, UniProt P16112 17-675); test: BLI (Octet RED), biotin-labeled human aggrecan G1-IGD-G2-Flag on streptavidin sensor, 27 C
T2 construct: used unlabelled as Biacore analyte; also called human aggrecan G1-IGD-G2-Flag; human Aggrecan G1G2 flag

human CD3ed-Fc = target: T1, human CD3ed-Fc; test: BLI (Octet RED), human CD3ed-Fc on the sensor
biotinylated plexin A1 = target: T3, biotinylated plexin A1 (human, UniProt Q9UIW2 27-1253, biotin on the AviTag sequence (BirA co-expression)); test: BLI (Octet), in the same way as in Example 3
T3 construct: extracellular region of plexin A1 linked to AviTag and FLAG tag; also called biotin-labeled human plexin A1; human plexin A1
T3 sequence (Q9UIW2 other isoform, or with tags, fused parts or gaps limits assumed): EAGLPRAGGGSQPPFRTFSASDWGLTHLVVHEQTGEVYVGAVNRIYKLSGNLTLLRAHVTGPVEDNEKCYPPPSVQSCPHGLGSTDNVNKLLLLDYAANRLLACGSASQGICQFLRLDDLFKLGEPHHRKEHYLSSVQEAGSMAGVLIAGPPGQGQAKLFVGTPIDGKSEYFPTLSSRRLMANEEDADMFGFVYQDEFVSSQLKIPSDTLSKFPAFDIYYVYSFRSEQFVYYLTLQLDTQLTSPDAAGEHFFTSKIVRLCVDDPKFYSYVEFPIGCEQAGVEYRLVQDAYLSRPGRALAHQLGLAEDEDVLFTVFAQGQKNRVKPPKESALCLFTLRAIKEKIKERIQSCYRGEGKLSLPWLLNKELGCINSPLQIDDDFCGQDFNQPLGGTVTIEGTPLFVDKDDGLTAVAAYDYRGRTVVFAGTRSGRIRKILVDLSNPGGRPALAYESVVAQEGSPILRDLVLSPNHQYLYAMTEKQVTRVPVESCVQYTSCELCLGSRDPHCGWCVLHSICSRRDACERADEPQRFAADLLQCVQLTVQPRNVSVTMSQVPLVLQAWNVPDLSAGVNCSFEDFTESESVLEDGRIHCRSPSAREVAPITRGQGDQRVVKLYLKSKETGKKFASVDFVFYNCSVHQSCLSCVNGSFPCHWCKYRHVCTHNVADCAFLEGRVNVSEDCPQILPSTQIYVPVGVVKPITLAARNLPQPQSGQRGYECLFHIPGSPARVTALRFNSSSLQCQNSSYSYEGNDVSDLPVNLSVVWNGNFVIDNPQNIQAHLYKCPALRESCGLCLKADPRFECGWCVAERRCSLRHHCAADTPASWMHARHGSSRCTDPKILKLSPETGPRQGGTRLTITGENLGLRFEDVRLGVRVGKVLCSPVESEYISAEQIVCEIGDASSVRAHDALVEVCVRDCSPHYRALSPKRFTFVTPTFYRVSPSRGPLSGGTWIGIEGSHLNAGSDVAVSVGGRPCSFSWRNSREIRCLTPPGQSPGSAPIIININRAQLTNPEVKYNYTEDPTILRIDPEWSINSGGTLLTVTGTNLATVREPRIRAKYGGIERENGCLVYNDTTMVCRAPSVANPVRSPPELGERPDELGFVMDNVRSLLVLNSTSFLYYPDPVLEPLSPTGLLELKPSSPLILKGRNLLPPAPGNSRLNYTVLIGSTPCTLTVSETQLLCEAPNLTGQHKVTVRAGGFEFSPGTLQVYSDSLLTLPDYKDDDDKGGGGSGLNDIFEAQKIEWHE

Row | Binder | binding result (human CD3ed-Fc) | binding result (biotinylated plexin A1) | other results
1 | hA2R3p.038-G1mISHI01/VK1.39-k0MT (antibody, human IgG1, kappa, V domains shown) VH: QLQLVESGGGLVQAGGSLRLSCAASGRTFRTYAMGWFRQAPGKEREFVSSISGSGGSKIYADSVKGRFTISRDNAKDTVNLQMNSLKPEDTAVYYCAVARGYYGTMASDPGLYDYWGQGTQVTVSS VL: DIQMTQSPSSLSASVGDRVTITCRASQSISSYLNWYQQKPGKAPKLLIYAASSLQSGVPSRFSGSGSGTDFTLTISSLQPEDFATYYCLQFDSYPLTFGGGTKVEIKR | – | – | binding result [1]: binds
2 | bC3edL1R1N161H01-G1mISHI01/VK1-39-k0MT (antibody, human IgG1, kappa, V domains shown, uncleaved) VH: QVQLVESGGGLVQPGGSLRLSCAASGFPFDNYVMSWVRQAPGKGLEWISAISWNGGSTYYAESMKGRFTISRDNAKSTLYLQMNSLKSEDTAVYYCAKEPRVYYSGSPDYWGQGTQVTVSG VL: DIQMTQSPSSLSASVGDRVTITCRASQSISSYLNWYQQKPGKAPKLLIYAASSLQSGVPSRFSGSGSGTDFTLTISSLQPEDFATYYCLQFDSYPLTFGGGTKVEIKR | no binding | – | –
3 | bC3edL1R1N164H01-G1mISHI01/VK1-39-k0MT (antibody, human IgG1, kappa, V domains shown, uncleaved) VH: QVQLVESGGGLVQPGGSLRLSCAASGFTFDVYGMSWVRHSPGKGLEWVSTINWNGGSTYYAESMKGRFTISRDNAKNTVYLQMNSLKPEDTAVYYCAKFAPWDGDMEWGQGTQVTVSG VL: DIQMTQSPSSLSASVGDRVTITCRASQSISSYLNWYQQKPGKAPKLLIYAASSLQSGVPSRFSGSGSGTDFTLTISSLQPEDFATYYCLQFDSYPLTFGGGTKVEIKR | no binding | – | –
4 | PX02-R4_017-G1mISHI01/VK1-39-k0MT (antibody, human IgG1, kappa, V domains shown, uncleaved; light chain printed once for the five molecules) VH: QVQLVESGGGLVQPGGSLRLSCTASGISFSISTMGWYRQAPGKQRELVATITSGGEAYYANSMKDRFTISRDNAENTVYLQMNRLKPEDSAVYYCNTKFPWSTDWNARGQGTQVTVSG VL: DIQMTQSPSSLSASVGDRVTITCRASQSISSYLNWYQQKPGKAPKLLIYAASSLQSGVPSRFSGSGSGTDFTLTISSLQPEDFATYYCLQFDSYPLTFGGGTKVEIKR | – | no binding | –
5 | bC3edL1R1N160H01-G1mISHI01/VK1-39-k0MT (antibody, human IgG1, kappa, V domains shown) VH: QVQLVESGGGLVQPGGSLRLSCAASGFTFNHCWMYWVRQAPGKGLEWVSVINTDGGSAYYADSVKGRFTISRDNAKNTLYLQMNSLKSEDTAVYYCARDWAPLVDYYYGMDYWGKGTLVTVSG VL: DIQMTQSPSSLSASVGDRVTITCRASQSISSYLNWYQQKPGKAPKLLIYAASSLQSGVPSRFSGSGSGTDFTLTISSLQPEDFATYYCLQFDSYPLTFGGGTKVEIKR | no binding | – | –
6 | PX03-R2_006-G1mISHI01/VK1-39-k0MT (antibody, human IgG1, kappa, V domains shown, uncleaved; light chain printed once for the five molecules) VH: QLQLVESGGGLVQPGGSLRLSCTASGISFSISTMGWYRQAPGKQRELVATIASGGEAYYANSVKGRFTISRDNAENTVYLQMNRLKPEDSAVYYCNTKFPWSTDWNARGQGTQVTVSG VL: DIQMTQSPSSLSASVGDRVTITCRASQSISSYLNWYQQKPGKAPKLLIYAASSLQSGVPSRFSGSGSGTDFTLTISSLQPEDFATYYCLQFDSYPLTFGGGTKVEIKR | – | no binding | –
7 | PX03-R4_009-G1mISHI01/VK1-39-k0MT (antibody, human IgG1, kappa, V domains shown, uncleaved; light chain printed once for the five molecules) VH: QLQLVESGGGLVQPGGSLRLSCTASGISFSISTMGWYRQAPGKQRELVATIASGGEAYYANSVKGRFTISREYAENTVFLQMNRLKPEDSAVYYCNTKFPWSTDWNARGQGTQVTVSG VL: DIQMTQSPSSLSASVGDRVTITCRASQSISSYLNWYQQKPGKAPKLLIYAASSLQSGVPSRFSGSGSGTDFTLTISSLQPEDFATYYCLQFDSYPLTFGGGTKVEIKR | – | no binding | –

Reference: patent US20210221875A1 (Chugai, published 2021)
